Data as given in publication PMC4974930.
Where two headings read alike, the source gives them in different places.

Columns and labels:
Experiment in all cases: cross-linking; 0.3 mg/ml purified F1 mutant in buffer A (20 mM HEPES pH 7.4, 100 mM KCl, 5 mM MgCl2, 5% glycerol) with trans-ABDM (azobenzene-dimaleimide), at least 2 h at room temperature, quenched with 1 mM DTT; 8% SDS-PAGE, intensity of the α/β dimer band relative to the monomer bands
[1] = target: E. coli F1 ATPase β subunit, cysteine-less, 6xHis-tagged, V409C (E. coli)
[2] = target: E. coli F1 ATPase β subunit, cysteine-less, 6xHis-tagged, V409C (E. coli); remark: listed apart in the source
[3] = target: E. coli F1 ATPase β subunit, cysteine-less, 6xHis-tagged, G412C (E. coli)
[4] = target: E. coli F1 ATPase β subunit, cysteine-less, 6xHis-tagged, S327C (E. coli)
[5] = target: E. coli F1 ATPase β subunit, cysteine-less, 6xHis-tagged, Q324C (E. coli)

Question: Which results are given for “E. coli F1 ATPase α subunit, cysteine-less, A380C (from UniProt P0ABB0 1-513) (natural protein)”?
Answer: crosslinking ratio [1]: 0.3; crosslinking ratio [2]: 0.4

Question: For “E. coli F1 ATPase α subunit, cysteine-less, G379C (from UniProt P0ABB0 1-513) (natural protein)”, which crosslinking ratio [3] is on record?
Answer: Its crosslinking ratio is 0.3.

Question: For “E. coli F1 ATPase α subunit, cysteine-less, N369C (from UniProt P0ABB0 1-513) (natural protein)”, which crosslinking ratio [4] is on record?
Answer: Its crosslinking ratio is 0.2.

Question: With “E. coli F1 ATPase α subunit, cysteine-less, S338C (from UniProt P0ABB0 1-513) (natural protein)” as the substance, how does the crosslinking ratio [5] read?
Answer: The crosslinking ratio was 0.2.
